Targets include DLG4_3, P78352; GORASP2, Q9H8Y8; NHERF2_2, Q15599; DLG1_3, Q12959; GRIP2_6, Q9C0E4; MAGI1_2, Q96QZ7; Inadl_6, Q8NI35; GRASP, Q7Z6J2.
Common to all, as to test: holdup assay
Common to all, as to design: key: below the threshold = too weak to quantify, mostly under pKd 3.1 to 4

A further assay concerns the target T1, DLG3_1, Q92796.
T1 sequence (Q92796 125-227, limits assumed, looked up): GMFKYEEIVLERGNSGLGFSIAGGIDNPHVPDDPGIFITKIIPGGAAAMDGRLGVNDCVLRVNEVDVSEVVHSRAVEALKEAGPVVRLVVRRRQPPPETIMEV

The next assay deals with T2, LIN7A, O14910.
T2 sequence (O14910 103-200, limits assumed, looked up): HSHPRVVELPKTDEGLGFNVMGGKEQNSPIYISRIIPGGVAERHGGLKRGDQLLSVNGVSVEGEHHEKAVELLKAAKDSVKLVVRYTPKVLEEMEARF

For another assay, the target named is T3, NHERF3_4, Q5T2W1.
T3 sequence (Q5T2W1 373-468, limits assumed, looked up): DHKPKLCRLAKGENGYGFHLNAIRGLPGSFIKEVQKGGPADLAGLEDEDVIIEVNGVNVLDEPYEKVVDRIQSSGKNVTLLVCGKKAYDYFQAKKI

Another assay deals with T4, APBA2_1, Q99767.
T4 sequence (Q99767 563-664, limits assumed, looked up): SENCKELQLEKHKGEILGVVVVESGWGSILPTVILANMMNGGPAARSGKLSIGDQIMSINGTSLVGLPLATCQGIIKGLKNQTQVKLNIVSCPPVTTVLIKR

Another assay deals with T5, PDZRN3_1, Q9UPQ7.
T5 sequence (Q9UPQ7 244-349, limits assumed, looked up): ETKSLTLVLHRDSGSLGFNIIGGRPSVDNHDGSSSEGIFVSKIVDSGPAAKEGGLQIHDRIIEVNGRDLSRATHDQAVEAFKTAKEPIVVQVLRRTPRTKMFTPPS

The next assay concerns the target T6, RAPGEF6, Q8TEU7.
T6 sequence (Q8TEU7 525-625, limits assumed, looked up): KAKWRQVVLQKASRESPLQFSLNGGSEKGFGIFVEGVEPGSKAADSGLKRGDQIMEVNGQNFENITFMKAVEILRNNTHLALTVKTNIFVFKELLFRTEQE

The next assay has as its target T7, NHERF3_1, Q5T2W1.
T7 sequence (Q5T2W1 4-100, limits assumed, looked up): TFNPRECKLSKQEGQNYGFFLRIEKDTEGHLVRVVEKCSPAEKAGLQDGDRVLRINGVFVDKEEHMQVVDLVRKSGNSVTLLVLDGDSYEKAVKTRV

For the next assay, the target named is T8, DFNB31_2, Q9P202.
T8 sequence (Q9P202 274-371, limits assumed, looked up): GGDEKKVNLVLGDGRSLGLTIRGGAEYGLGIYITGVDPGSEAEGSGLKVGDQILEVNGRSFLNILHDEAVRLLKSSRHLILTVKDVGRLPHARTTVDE
The settings on record: plain residues with an end cap or a label only (N-terminal biotin on a linker: ttds).

Another assay has as its target Inadl_1, Q8NI35. The settings on record: plain residues with an end cap or a label only (N-terminal biotin on a linker: ttds).
A further assay concerns the target FRMPD4, Q14CM0. The conditions noted are these: plain residues with an end cap or a label only (N-terminal biotin on a linker: ttds).
A further assay concerns the target Inadl_5, Q8NI35. The settings on record: plain residues with an end cap or a label only (N-terminal biotin on a linker: ttds).
Another assay concerns the target T9, ARHGEF11, O15085.
T9 sequence (O15085 42-136, limits assumed, looked up): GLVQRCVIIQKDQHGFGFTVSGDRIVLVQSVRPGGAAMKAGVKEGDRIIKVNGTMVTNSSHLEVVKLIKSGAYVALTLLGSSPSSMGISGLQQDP
The settings on record: plain residues with an end cap or a label only (N-terminal biotin on a linker: ttds).

Another assay addresses T10, SYNJ2BP, P57105.
T10 sequence (P57105 8-110, limits assumed, looked up): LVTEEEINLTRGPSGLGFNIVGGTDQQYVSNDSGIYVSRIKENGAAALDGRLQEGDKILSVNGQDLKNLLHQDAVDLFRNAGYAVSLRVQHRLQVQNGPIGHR
The conditions noted are these: plain residues with an end cap or a label only (N-terminal biotin on a linker: ttds).

For a further assay, the target named is DLG1_1, Q12959. The settings on record: plain residues with an end cap or a label only (N-terminal biotin on a linker: ttds).
For another assay, the target named is T11, PCLO, Q9Y6V0.
T11 sequence (Q9Y6V0 4491-4600, limits assumed, looked up): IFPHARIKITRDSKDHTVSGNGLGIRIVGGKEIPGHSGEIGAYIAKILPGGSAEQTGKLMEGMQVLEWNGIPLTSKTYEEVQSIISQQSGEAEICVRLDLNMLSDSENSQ
The settings on record: plain residues with an end cap or a label only (N-terminal biotin on a linker: ttds).

The target in a further assay is T12, DLG3_3, Q92796.
T12 sequence (Q92796 374-475, limits assumed, looked up): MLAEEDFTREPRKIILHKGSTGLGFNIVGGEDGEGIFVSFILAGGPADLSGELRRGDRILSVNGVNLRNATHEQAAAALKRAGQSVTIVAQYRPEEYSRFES
The conditions noted are these: plain residues with an end cap or a label only (N-terminal biotin on a linker: ttds).

The next assay has as its target Inadl_10, Q8NI35. The conditions noted are these: plain residues with an end cap or a label only (N-terminal biotin on a linker: ttds).
Where [1] appears, read: plain residues with an end cap or a label only (N-terminal biotin on a linker: ado-ado).
The mark [2] stands for this setting: plain residues with an end cap or a label only (N-terminal biotin on a linker: ttds).

Chain of Inadl_5, Q8NI35 (Q8NI35 673-780): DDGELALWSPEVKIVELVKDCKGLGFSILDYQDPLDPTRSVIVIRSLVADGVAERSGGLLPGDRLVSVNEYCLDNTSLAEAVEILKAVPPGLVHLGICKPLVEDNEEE
Chain of Inadl_10, Q8NI35 (Q8NI35 1673-1763): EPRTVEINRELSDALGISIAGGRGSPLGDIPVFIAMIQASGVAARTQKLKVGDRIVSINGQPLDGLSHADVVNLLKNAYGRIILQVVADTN
Chain of FRMPD4, Q14CM0 (Q14CM0 67-160): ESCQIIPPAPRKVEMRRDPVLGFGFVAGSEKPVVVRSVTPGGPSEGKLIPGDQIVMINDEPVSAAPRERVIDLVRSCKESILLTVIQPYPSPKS
Chain of Inadl_6, Q8NI35 (Q8NI35 1058-1167): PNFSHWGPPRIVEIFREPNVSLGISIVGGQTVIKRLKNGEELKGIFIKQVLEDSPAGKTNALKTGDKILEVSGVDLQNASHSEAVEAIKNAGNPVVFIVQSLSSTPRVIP
Chain of NHERF2_2, Q15599 (Q15599 142-238): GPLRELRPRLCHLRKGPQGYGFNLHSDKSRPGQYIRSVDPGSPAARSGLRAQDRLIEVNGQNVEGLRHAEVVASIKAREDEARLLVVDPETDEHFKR
Chain of DLG4_3, P78352 (P78352 306-403): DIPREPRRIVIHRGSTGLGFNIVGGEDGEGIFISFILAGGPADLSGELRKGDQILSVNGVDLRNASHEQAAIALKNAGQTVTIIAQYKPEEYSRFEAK
Chain of Inadl_1, Q8NI35 (Q8NI35 113-229): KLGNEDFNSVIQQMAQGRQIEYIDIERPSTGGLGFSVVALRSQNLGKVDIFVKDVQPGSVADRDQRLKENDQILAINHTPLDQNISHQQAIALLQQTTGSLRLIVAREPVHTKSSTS
Chain of MAGI1_2, Q96QZ7 (Q96QZ7 456-580): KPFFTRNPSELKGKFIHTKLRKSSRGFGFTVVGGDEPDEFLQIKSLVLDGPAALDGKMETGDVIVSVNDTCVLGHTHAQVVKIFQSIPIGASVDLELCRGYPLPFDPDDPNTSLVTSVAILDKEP
Chain of GRIP2_6, Q9C0E4 (Q9C0E4 648-740): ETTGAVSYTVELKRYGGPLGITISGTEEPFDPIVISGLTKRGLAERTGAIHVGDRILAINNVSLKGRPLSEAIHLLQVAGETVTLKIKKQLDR
Chain of GRASP, Q7Z6J2 (Q7Z6J2 96-193): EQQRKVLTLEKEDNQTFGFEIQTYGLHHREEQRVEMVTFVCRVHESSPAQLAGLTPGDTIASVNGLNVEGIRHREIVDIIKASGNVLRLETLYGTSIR

The pKd is −log10 of the Kd, conventionally taken in molar units. In the case of KSRVAFFEEL [NF2, P35240], the pKd in the assay with DLG3_1, Q92796 (setting [1]) was 3.58; with DLG4_3, P78352 (setting [1]), 3.52; with GORASP2, Q9H8Y8 (setting [1]), 3.87; with NHERF2_2, Q15599 (setting [1]), 3.89; in the assay with DLG1_3, Q12959 (setting [1]), 3.82; with LIN7A, O14910 (setting [1]) it was 3.51. For the same molecule, the pKd with NHERF3_4, Q5T2W1 (setting [1]) amounted to 3.59; with GRIP2_6, Q9C0E4 (setting [1]), 3.77; with MAGI1_2, Q96QZ7 (setting [1]) it was 3.53; in the assay with APBA2_1, Q99767 (setting [1]), 3.54; with PDZRN3_1, Q9UPQ7 (setting [1]), 3.54; with Inadl_6, Q8NI35 (setting [1]), 3.47.

Turning to KRPEMTSSSV [MUC3B, MUC3A, Q02505;Q9H195], the pKd entry with RAPGEF6, Q8TEU7 (setting [1]) is “below the threshold”; in the assay with DLG3_1, Q92796 (setting [1]), “below the threshold”; with GRASP, Q7Z6J2 (setting [1]), 4; with NHERF3_1, Q5T2W1 (setting [1]), 3.85; in the assay with NHERF3_4, Q5T2W1 (setting [1]), “below the threshold”; with MAGI1_2, Q96QZ7 (setting [1]), “below the threshold”. Further, in the assay with PDZRN3_1, Q9UPQ7 (setting [1]), the pKd entry is on record as “below the threshold”.

For RSLEEEESQL [GRASP, Q7Z6J2], the negative-log Kd (pKd) with RAPGEF6, Q8TEU7 (setting [2]) was 3.56; in the assay with DLG3_1, Q92796 (setting [2]), 3.6; with DFNB31_2, Q9P202, 3.83; with Inadl_1, Q8NI35, “below the threshold”; with DLG4_3, P78352 (setting [2]), 3.75; with GORASP2, Q9H8Y8 (setting [2]), “below the threshold”. In addition, the pKd was 4.48 with FRMPD4, Q14CM0; “below the threshold” with Inadl_5, Q8NI35; 5.07 in the assay with NHERF2_2, Q15599 (setting [2]); 4.36 in the assay with DLG1_3, Q12959 (setting [2]); 3.78 with ARHGEF11, O15085; 3.56 in the assay with LIN7A, O14910 (setting [2]). Besides, the negative logarithm of the Kd (pKd) in the assay with SYNJ2BP, P57105 was 3.86; in the assay with GRASP, Q7Z6J2 (setting [2]), 3.99; with NHERF3_1, Q5T2W1 (setting [2]), 5.27; with NHERF3_4, Q5T2W1 (setting [2]) it was “below the threshold”; with GRIP2_6, Q9C0E4 (setting [2]), 3.64; with MAGI1_2, Q96QZ7 (setting [2]), “below the threshold”. Further, the pKd result with DLG1_1, Q12959 is “below the threshold”; with APBA2_1, Q99767 (setting [2]), “below the threshold”; with PCLO, Q9Y6V0 it was 3.73; in the assay with PDZRN3_1, Q9UPQ7 (setting [2]), 4.24; with Inadl_6, Q8NI35 (setting [2]), 4.05; with DLG3_3, Q92796, 3.81. The pKd result with Inadl_10, Q8NI35 is listed as “below the threshold”.

As to SRPQRTQTQV [HPV67-E6, A4U7F2], the negative logarithm of the Kd (pKd) entry in the assay with RAPGEF6, Q8TEU7 (setting [2]) is “below the threshold”; with DLG3_1, Q92796 (setting [2]), 3.89; with DFNB31_2, Q9P202 it was “below the threshold”; with Inadl_1, Q8NI35, “below the threshold”; in the assay with DLG4_3, P78352 (setting [2]), 4.23; with GORASP2, Q9H8Y8 (setting [2]) it was “below the threshold”. Also, the pKd result was “below the threshold” with FRMPD4, Q14CM0; “below the threshold” with Inadl_5, Q8NI35; “below the threshold” with NHERF2_2, Q15599 (setting [2]); 4.13 in the assay with DLG1_3, Q12959 (setting [2]); 4.05 with ARHGEF11, O15085; “below the threshold” with LIN7A, O14910 (setting [2]). In addition, the pKd with SYNJ2BP, P57105 was 4.4; with GRASP, Q7Z6J2 (setting [2]), “below the threshold”; in the assay with NHERF3_1, Q5T2W1 (setting [2]) it was 3.98; with NHERF3_4, Q5T2W1 (setting [2]) it was “below the threshold”; with GRIP2_6, Q9C0E4 (setting [2]) it was “below the threshold”; in the assay with MAGI1_2, Q96QZ7 (setting [2]) it was 5.22. In addition, the pKd in the assay with DLG1_1, Q12959 is 4.52; with APBA2_1, Q99767 (setting [2]), “below the threshold”; with PCLO, Q9Y6V0, “below the threshold”; with PDZRN3_1, Q9UPQ7 (setting [2]), 3.76; with Inadl_6, Q8NI35 (setting [2]), “below the threshold”; with DLG3_3, Q92796 it was 4.3. In addition, the pKd entry with Inadl_10, Q8NI35 is “below the threshold”.

As to ERKLSSESQV [LRP4, O75096], the pKd result with RAPGEF6, Q8TEU7 (setting [2]) was “below the threshold”; with DLG3_1, Q92796 (setting [2]), 3.81; with DFNB31_2, Q9P202 it was “below the threshold”; with Inadl_1, Q8NI35 it was “below the threshold”; with DLG4_3, P78352 (setting [2]), “below the threshold”; in the assay with GORASP2, Q9H8Y8 (setting [2]), 4.39. Besides, the pKd result with FRMPD4, Q14CM0 was “below the threshold”; with Inadl_5, Q8NI35 it was “below the threshold”; with NHERF2_2, Q15599 (setting [2]), “below the threshold”; in the assay with DLG1_3, Q12959 (setting [2]), “below the threshold”; with ARHGEF11, O15085, “below the threshold”; with LIN7A, O14910 (setting [2]), “below the threshold”. Moreover, the pKd with SYNJ2BP, P57105 was 4.78; with GRASP, Q7Z6J2 (setting [2]) it was “below the threshold”; with NHERF3_1, Q5T2W1 (setting [2]), “below the threshold”; with NHERF3_4, Q5T2W1 (setting [2]), “below the threshold”; with GRIP2_6, Q9C0E4 (setting [2]), “below the threshold”; in the assay with MAGI1_2, Q96QZ7 (setting [2]), 4.01. The negative-log Kd (pKd) with DLG1_1, Q12959 was 3.82; with APBA2_1, Q99767 (setting [2]), “below the threshold”; with PCLO, Q9Y6V0 it was “below the threshold”; with PDZRN3_1, Q9UPQ7 (setting [2]), “below the threshold”; with Inadl_6, Q8NI35 (setting [2]), “below the threshold”; with DLG3_3, Q92796, 3.51. The pKd entry in the assay with Inadl_10, Q8NI35 is reported as “below the threshold”.

For SVWLRKETRV [CYSLTR2, Q9NS75], the pKd is 3.44 with RAPGEF6, Q8TEU7 (setting [2]); 4.41 with DLG3_1, Q92796 (setting [2]); 3.73 with DFNB31_2, Q9P202; “below the threshold” with Inadl_1, Q8NI35; 6.55 in the assay with DLG4_3, P78352 (setting [2]); 4.01 with GORASP2, Q9H8Y8 (setting [2]). The pKd entry was “below the threshold” in the assay with FRMPD4, Q14CM0; 3.62 in the assay with Inadl_5, Q8NI35; 3.78 with NHERF2_2, Q15599 (setting [2]); 5.57 in the assay with DLG1_3, Q12959 (setting [2]); 4.46 with ARHGEF11, O15085; 4.17 with LIN7A, O14910 (setting [2]). In addition, the pKd with SYNJ2BP, P57105 is 5.38; with GRASP, Q7Z6J2 (setting [2]), “below the threshold”; with NHERF3_1, Q5T2W1 (setting [2]), 4.8; with NHERF3_4, Q5T2W1 (setting [2]) it was 3.48; with GRIP2_6, Q9C0E4 (setting [2]) it was “below the threshold”; with MAGI1_2, Q96QZ7 (setting [2]), 5.63. The pKd was 5.14 with DLG1_1, Q12959; “below the threshold” in the assay with APBA2_1, Q99767 (setting [2]); “below the threshold” with PCLO, Q9Y6V0; 5.1 with PDZRN3_1, Q9UPQ7 (setting [2]); “below the threshold” in the assay with Inadl_6, Q8NI35 (setting [2]); 5.34 with DLG3_3, Q92796. Besides, in the assay with Inadl_10, Q8NI35, the pKd result is “below the threshold”.

The values above are taken from article PMC9482650, “Quantitative fragmentomics allow affinity mapping of interactomes” (Nature Communications, 2022).
